From patent US20120282612A1
Values belong to the substance of their own block, whether it stands above or below them.

Legend:
[1] = target: PSA in seminal fluid of normal men (human) (UniProt P07288); assay: MAA-Sepharose column, 5 ng purified PSA applied, 3.5 ng recovered in all fractions
[2] = target: PSA (prostate specific antigen) in serum of prostate cancer patient (human) (UniProt P07288); assay: TJA-II-Sepharose column, binding rate of PSA
[3] = target: PSA (prostate specific antigen) in serum of prostatic hypertrophy patient (human) (UniProt P07288); assay: TJA-II-Sepharose column, binding rate of PSA
[4] = target: PSA in seminal fluid of normal men (human) (UniProt P07288); assay: TJA-II-Sepharose column, binding rate of PSA
[5] = target: Sialidase-treated PSA in seminal fluid of normal men (human) (UniProt P07288); assay: TJA-II-Sepharose column, sialidase-treated sample
[6] = target: Sialidase-treated PSA in serum of prostate cancer patient (human) (UniProt P07288); assay: TJA-II-Sepharose column, sialidase-treated sample
[7] = target: Sialidase-treated PSA in serum of prostatic hypertrophy patient (human) (UniProt P07288); assay: TJA-II-Sepharose column, sialidase-treated sample
[8] = target: PSA (prostate specific antigen) in serum of prostate cancer patient (human) (UniProt P07288); assay: TJA-II-Sepharose column, 20 sera of prostate cancer patients
[9] = target: PSA (prostate specific antigen) in serum of prostatic hypertrophy patient (human) (UniProt P07288); assay: TJA-II-Sepharose column, 20 sera of prostatic hypertrophy patients
[10] = target: PSA (prostate specific antigen) in serum of prostate cancer patient (human) (UniProt P07288); assay: TJA-II-Sepharose column, before sialidase treatment (Table 4 prints 16%)
[11] = target: PSA (prostate specific antigen) in serum of prostate cancer patient (human) (UniProt P07288); assay: TJA-II-Sepharose column, serum of prostate cancer patient 1; total PSA immunoassay of fractions
[12] = target: PSA (prostate specific antigen) in serum of prostate cancer patient (human) (UniProt P07288); assay: TJA-II-Sepharose column, serum of prostate cancer patient 2; total PSA immunoassay of fractions
[13] = target: PSA (prostate specific antigen) in serum of prostate cancer patient (human) (UniProt P07288); assay: TJA-II-Sepharose column, serum of prostate cancer patient 3; total PSA immunoassay of fractions
[14] = target: PSA (prostate specific antigen) in serum of prostate cancer patient (human) (UniProt P07288); assay: TJA-II-Sepharose column, serum of prostate cancer patient 4; total PSA immunoassay of fractions
[15] = target: PSA (prostate specific antigen) in serum of prostate cancer patient (human) (UniProt P07288); assay: TJA-II-Sepharose column, serum of prostate cancer patient 5; total PSA immunoassay of fractions
[16] = target: PSA (prostate specific antigen) in serum of prostate cancer patient (human) (UniProt P07288); assay: TJA-II-Sepharose column, serum of prostate cancer patient 6; total PSA immunoassay of fractions
[17] = target: PSA (prostate specific antigen) in serum of prostate cancer patient (human) (UniProt P07288); assay: TJA-II-Sepharose column, serum of prostate cancer patient 7; total PSA immunoassay of fractions
[18] = target: PSA (prostate specific antigen) in serum of prostate cancer patient (human) (UniProt P07288); assay: TJA-II-Sepharose column, serum of prostate cancer patient 8; total PSA immunoassay of fractions
[19] = target: PSA (prostate specific antigen) in serum of prostate cancer patient (human) (UniProt P07288); assay: TJA-II-Sepharose column, serum of prostate cancer patient 9; total PSA immunoassay of fractions
[20] = target: PSA (prostate specific antigen) in serum of prostate cancer patient (human) (UniProt P07288); assay: TJA-II-Sepharose column, serum of prostate cancer patient 10; total PSA immunoassay of fractions
[21] = target: PSA (prostate specific antigen) in serum of prostate cancer patient (human) (UniProt P07288); assay: TJA-II-Sepharose column, serum of prostate cancer patient 11; total PSA immunoassay of fractions
[22] = target: PSA (prostate specific antigen) in serum of prostate cancer patient (human) (UniProt P07288); assay: TJA-II-Sepharose column, serum of prostate cancer patient 12; total PSA immunoassay of fractions
[23] = target: PSA (prostate specific antigen) in serum of prostate cancer patient (human) (UniProt P07288); assay: TJA-II-Sepharose column, serum of prostate cancer patient 13; total PSA immunoassay of fractions
[24] = target: PSA (prostate specific antigen) in serum of prostate cancer patient (human) (UniProt P07288); assay: TJA-II-Sepharose column, serum of prostate cancer patient 14; total PSA immunoassay of fractions
[25] = target: PSA (prostate specific antigen) in serum of prostate cancer patient (human) (UniProt P07288); assay: TJA-II-Sepharose column, serum of prostate cancer patient 15; total PSA immunoassay of fractions
[26] = target: PSA (prostate specific antigen) in serum of prostatic hypertrophy patient (human) (UniProt P07288); assay: TJA-II-Sepharose column, serum of prostatic hypertrophy patient 1; total PSA immunoassay of fractions
[27] = target: PSA (prostate specific antigen) in serum of prostatic hypertrophy patient (human) (UniProt P07288); assay: TJA-II-Sepharose column, serum of prostatic hypertrophy patient 2; total PSA immunoassay of fractions
[28] = target: PSA (prostate specific antigen) in serum of prostatic hypertrophy patient (human) (UniProt P07288); assay: TJA-II-Sepharose column, serum of prostatic hypertrophy patient 3; total PSA immunoassay of fractions
[29] = target: PSA (prostate specific antigen) in serum of prostatic hypertrophy patient (human) (UniProt P07288); assay: TJA-II-Sepharose column, serum of prostatic hypertrophy patient 4; total PSA immunoassay of fractions
[30] = target: PSA (prostate specific antigen) in serum of prostatic hypertrophy patient (human) (UniProt P07288); assay: TJA-II-Sepharose column, serum of prostatic hypertrophy patient 5; total PSA immunoassay of fractions
[31] = target: PSA (prostate specific antigen) in serum of prostatic hypertrophy patient (human) (UniProt P07288); assay: TJA-II-Sepharose column, serum of prostatic hypertrophy patient 6; total PSA immunoassay of fractions
[32] = target: PSA (prostate specific antigen) in serum of prostatic hypertrophy patient (human) (UniProt P07288); assay: TJA-II-Sepharose column, serum of prostatic hypertrophy patient 7; total PSA immunoassay of fractions
[33] = target: PSA (prostate specific antigen) in serum of prostatic hypertrophy patient (human) (UniProt P07288); assay: TJA-II-Sepharose column, serum of prostatic hypertrophy patient 8; total PSA immunoassay of fractions
[34] = target: PSA (prostate specific antigen) in serum of prostatic hypertrophy patient (human) (UniProt P07288); assay: TJA-II-Sepharose column, serum of prostatic hypertrophy patient 9; total PSA immunoassay of fractions
[35] = target: PSA (prostate specific antigen) in serum of prostate cancer patient (human) (UniProt P07288); assay: UEA-I agarose column, binding rate of PSA
[36] = target: PSA (prostate specific antigen) in serum of prostate cancer patient (human) (UniProt P07288); assay: WFA-Sepharose column, binding rate of PSA
[37] = target: PSA (prostate specific antigen) in serum of prostate cancer patient (human) (UniProt P07288); assay: WFA-Sepharose column, serum of prostate cancer patient 6; total PSA immunoassay of fractions
[38] = target: PSA (prostate specific antigen) in serum of prostate cancer patient (human) (UniProt P07288); assay: WFA-Sepharose column, serum of prostate cancer patient 12; total PSA immunoassay of fractions
[39] = target: PSA (prostate specific antigen) in serum of prostate cancer patient (human) (UniProt P07288); assay: WFA-Sepharose column, serum of prostate cancer patient 15; total PSA immunoassay of fractions

Maackia amurensis agglutinin, sequence (P0DKL3 30-278): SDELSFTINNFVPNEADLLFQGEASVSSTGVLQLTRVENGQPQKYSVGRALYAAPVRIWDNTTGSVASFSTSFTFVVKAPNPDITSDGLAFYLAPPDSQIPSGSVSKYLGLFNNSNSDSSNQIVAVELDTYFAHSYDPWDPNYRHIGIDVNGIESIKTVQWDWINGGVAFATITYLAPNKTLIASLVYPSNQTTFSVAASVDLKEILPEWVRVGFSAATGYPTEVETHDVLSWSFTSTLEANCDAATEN

Substance: Maackia amurensis agglutinin
percent considered bound to the column [1]: 30%

Substance: Trichosanthes japonica agglutinin-II
binding rate [2]: 16%
binding rate [3]: 2%
binding rate [4]: 2%
binding rate [5]: 8.4%
binding rate [6]: 59%
binding rate [7]: 2%
TJA-II binding rate [8]: > 2%
TJA-II binding rate [9]: < 2%
binding rate [10]: 11%
TJA-II binding ratio [11]: 6.4%
TJA-II-bound PSA in serum sample [11]: 128 ng/mL
TJA-II binding ratio [12]: 5%
TJA-II-bound PSA in serum sample [12]: 6.6 ng/mL
TJA-II binding ratio [13]: 3%
TJA-II-bound PSA in serum sample [13]: 2.4 ng/mL
TJA-II binding ratio [14]: 4.5%
TJA-II-bound PSA in serum sample [14]: 9.5 ng/mL
TJA-II binding ratio [15]: 7%
TJA-II-bound PSA in serum sample [15]: 6.3 ng/mL
TJA-II binding ratio [16]: 10.8%
TJA-II-bound PSA in serum sample [16]: 388 ng/mL
TJA-II binding ratio [17]: 8.2%
TJA-II-bound PSA in serum sample [17]: 5.58 ng/mL
TJA-II binding ratio [18]: 21%
TJA-II-bound PSA in serum sample [18]: 0.9 ng/mL
TJA-II binding ratio [19]: 14%
TJA-II-bound PSA in serum sample [19]: 0.84 ng/mL
TJA-II binding ratio [20]: 4.6%
TJA-II-bound PSA in serum sample [20]: 0.46 ng/mL
TJA-II binding ratio [21]: 23%
TJA-II-bound PSA in serum sample [21]: 1.04 ng/mL
TJA-II binding ratio [22]: 8%
TJA-II-bound PSA in serum sample [22]: 4.3 ng/mL
TJA-II binding ratio [23]: 5%
TJA-II-bound PSA in serum sample [23]: 0.24 ng/mL
TJA-II binding ratio [24]: 4%
TJA-II-bound PSA in serum sample [24]: 0.85 ng/mL
TJA-II binding ratio [25]: 5%
TJA-II-bound PSA in serum sample [25]: 0.61 ng/mL
TJA-II binding ratio [26]: 1.2%
TJA-II-bound PSA in serum sample [26]: 0.2 ng/mL
TJA-II binding ratio [27]: < 0.05%
TJA-II binding ratio [28]: 0.2%
TJA-II-bound PSA in serum sample [28]: 0.02 ng/mL
TJA-II binding ratio [29]: 0.6%
TJA-II-bound PSA in serum sample [29]: 0.04 ng/mL
TJA-II binding ratio [30]: 1.5%
TJA-II-bound PSA in serum sample [30]: 0.12 ng/mL
TJA-II binding ratio [31]: 1.8%
TJA-II-bound PSA in serum sample [31]: 0.17 ng/mL
TJA-II binding ratio [32]: < 0.05%
TJA-II binding ratio [33]: 1%
TJA-II-bound PSA in serum sample [33]: 0.09 ng/mL
TJA-II binding ratio [34]: < 0.05%

binding rate [35]: 5%
Substance: Ulex europaeus agglutinin-1 (from UniProt P22972 1-243)

binding rate [36]: 11%
WFA binding ratio [37]: 9.4%
WFA-bound PSA in serum sample [37]: 328 ng/mL
WFA binding ratio [38]: 7.5%
WFA-bound PSA in serum sample [38]: 3.91 ng/mL
WFA binding ratio [39]: 4.2%
WFA-bound PSA in serum sample [39]: 0.49 ng/mL
Substance: Wisteria floribunda agglutinin
